The source of these data is US20240173421A1 (Seagen, published 2024).

In test [1] the target is T1, CD16a (FcγRIIIa) on Jurkat NFAT reporter cells (UniProt P08637 17-254, limits assumed). In words: cell-based or functional assay.
For test [2], the target named is T2, FcgRIIa (NFAT activity assay) (UniProt P12318 34-317).
T2 sequence (looked up): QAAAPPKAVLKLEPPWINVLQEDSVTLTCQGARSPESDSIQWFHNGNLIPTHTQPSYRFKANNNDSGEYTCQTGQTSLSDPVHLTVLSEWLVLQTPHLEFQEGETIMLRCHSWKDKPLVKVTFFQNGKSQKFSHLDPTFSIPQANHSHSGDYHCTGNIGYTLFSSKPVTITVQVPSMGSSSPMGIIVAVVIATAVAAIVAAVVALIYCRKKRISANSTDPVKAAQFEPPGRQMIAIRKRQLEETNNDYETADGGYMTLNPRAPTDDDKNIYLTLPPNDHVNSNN
Briefly: cell-based or functional assay.

The target of test [3] is FcgRIa (NFAT activity assay) (UniProt P12314 16-374). In words: cell-based or functional assay.
FcgRIa (NFAT activity assay), sequence (P12314 16-374): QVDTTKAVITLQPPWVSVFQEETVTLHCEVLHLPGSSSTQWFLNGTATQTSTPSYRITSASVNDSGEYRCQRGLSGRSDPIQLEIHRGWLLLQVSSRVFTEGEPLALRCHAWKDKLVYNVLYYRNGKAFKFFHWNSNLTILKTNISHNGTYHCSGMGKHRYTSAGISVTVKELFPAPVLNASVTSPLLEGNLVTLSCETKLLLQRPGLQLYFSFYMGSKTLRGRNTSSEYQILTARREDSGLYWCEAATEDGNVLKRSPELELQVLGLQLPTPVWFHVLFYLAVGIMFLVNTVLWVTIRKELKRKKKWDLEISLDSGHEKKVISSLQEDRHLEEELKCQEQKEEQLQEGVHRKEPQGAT
In test [4] the target is T1, CD16a (FcγRIIIa) on Jurkat NFAT …. Briefly: cell-based or functional assay. The source holds these as a separate data set.
The target is the same in test [5]. Briefly: cell-based or functional assay. The source holds these as a separate data set.
Test [6] addresses T3, FcgRIIb (human, UniProt P31994 43-217, biotinylated).
T3 sequence (looked up): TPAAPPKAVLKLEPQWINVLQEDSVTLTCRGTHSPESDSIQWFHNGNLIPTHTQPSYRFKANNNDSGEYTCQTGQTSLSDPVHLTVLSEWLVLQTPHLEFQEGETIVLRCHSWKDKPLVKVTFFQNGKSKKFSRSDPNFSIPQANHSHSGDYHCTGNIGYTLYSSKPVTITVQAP
Briefly: BLI, FcγR-monomeric Fc fusion on streptavidin sensor.

Test [7] deals with T1, CD16a (FcγRIIIa) on Jurkat NFAT …. In words: cell-based or functional assay. The source holds these as a separate data set.
The target is the same in test [8]. Briefly: cell-based or functional assay. This is another data set of the same source.
Test [9] shares this target. Briefly: cell-based or functional assay. This is another data set of the same source.
Test [10] has the same target. In words: cell-based or functional assay. The source holds these as a separate data set.

Read-outs that look alike come from different tables or passages of the source.

T1 sequence (P08637 17-254 limits assumed): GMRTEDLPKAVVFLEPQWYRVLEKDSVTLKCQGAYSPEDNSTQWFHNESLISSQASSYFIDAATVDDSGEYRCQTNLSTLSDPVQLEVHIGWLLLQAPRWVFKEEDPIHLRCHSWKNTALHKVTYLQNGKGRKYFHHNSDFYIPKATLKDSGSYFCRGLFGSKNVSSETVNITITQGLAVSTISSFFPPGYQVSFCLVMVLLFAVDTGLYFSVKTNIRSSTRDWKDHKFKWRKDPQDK

B1: Anti-CD40-WT (antibody, human IgG1, kappa)
heavy: not shown
light: DIQMTQSPSSLSASVGDRVTITCRSSQSLVHSNGNTFLHWYQQKPGKAPKLLIYTVSNRFSGVPSRFSGSGSGTDFTLTISSLQPEDFATYFCSQTTHVPWTFGQGTKVEIKRTVAAPSVFIFPPSDEQLKSGTASVVCLLNNFYPREAKVQWKVDNALQSGNSQESVTEQDSKDSTYSLSSTLTLSKADYEKHKVYACEVTHQGLSSPVTKSFNRGEC
Consider B1, for which the results for the “EC50, NFAT activity assay” value in test [1], in test [2] and in test [3] were 0.16 µg/mL, 0.08 µg/mL and 0.09 µg/mL, respectively.

B2: Anti-CD40-AF-1(8) (antibody)
heavy: not shown
light: DIQMTQSPSSLSASVGDRVTITCRSSQSLVHSNGNTFLHWYQQKPGKAPKLLIYTVSNRFSGVPSRFSGSGSGTDFTLTISSLQPEDFATYFCSQTTHVPWTFGQGTKVEIKRTVAAPSVFIFPPSDEQLKSGTASVVCLLNNFYPREAKVQWKVDNALQSGNSQESVTEQDSKDSTYSLSSTLTLSKADYEKHKVYACEVTHQGLSSPVTKSFNRGEC
modifications: reduced interchain-disulfide cysteine carries compound 1; afucosylated N-glycan; reduced interchain-disulfide cysteines carry compound 1 (disulfide-PEG12)
Turning to B2, the “EC50 (read off the curve), FcγRIIIa NFAT reporter assay” value (“EC50 … FcγRIIIa NFAT reporter assay” below) in test [4] was roughly 7 ng/mL.

B3: Anti-CD40-AF-9(8) (antibody, human IgG1, kappa)
heavy: not shown
light: DIQMTQSPSSLSASVGDRVTITCRSSQSLVHSNGNTFLHWYQQKPGKAPKLLIYTVSNRFSGVPSRFSGSGSGTDFTLTISSLQPEDFATYFCSQTTHVPWTFGQGTKVEIKRTVAAPSVFIFPPSDEQLKSGTASVVCLLNNFYPREAKVQWKVDNALQSGNSQESVTEQDSKDSTYSLSSTLTLSKADYEKHKVYACEVTHQGLSSPVTKSFNRGEC
modifications: reduced interchain-disulfide cysteine carries compound 9; afucosylated N-glycan; reduced interchain-disulfide cysteines carry compound 9 (maleimidopropionyl-PEG12)
In the case of B3, the “EC50, NFAT activity assay” value was 0.22 µg/mL in [1], 14.3 µg/mL in test [2] and 0.35 µg/mL in test [3].

B4: Anti-CD40-AF-1(2) (antibody, human IgG1, kappa)
heavy: not shown
light: DIQMTQSPSSLSASVGDRVTITCRSSQSLVHSNGNTFLHWYQQKPGKAPKLLIYTVSNRFSGVPSRFSGSGSGTDFTLTISSLQPEDFATYFCSQTTHVPWTFGQGTKVEIKRTVAAPSVFIFPPSDEQLKSGTASVVCLLNNFYPREAKVQWKVDNALQSGNSQESVTEQDSKDSTYSLSSTLTLSKADYEKHKVYACEVTHQGLSSPVTKSFNRGEC
modifications: afucosylated N-glycan; compound 1 (disulfide-PEG12) on reduced interchain-disulfide cysteines, 2 per antibody, sites not stated
notes: 2 BPM per antibody; also called Anti-CD40-AF-1 2-load
On to B4, for which the “EC50 … FcγRIIIa NFAT reporter assay” value in [5] is roughly 3 ng/mL. Also, the Kd in test [6] was found to be 21 µM.

B5: Anti-CD40-AF-10 (antibody, human IgG1, kappa)
heavy: not shown
light: DIQMTQSPSSLSASVGDRVTITCRSSQSLVHSNGNTFLHWYQQKPGKAPKLLIYTVSNRFSGVPSRFSGSGSGTDFTLTISSLQPEDFATYFCSQTTHVPWTFGQGTKVEIKRTVAAPSVFIFPPSDEQLKSGTASVVCLLNNFYPREAKVQWKVDNALQSGNSQESVTEQDSKDSTYSLSSTLTLSKADYEKHKVYACEVTHQGLSSPVTKSFNRGEC
modifications: reduced interchain-disulfide cysteine carries compound 10; afucosylated N-glycan; reduced interchain-disulfide cysteines carry compound 10 (maleimidopropionyl-PEG48)
Consider B5, for which the “EC50, NFAT activity assay” value in [1] is 2.09 µg/mL; in test [2], 227 µg/mL; in [3], 3.73 µg/mL.

B6: Anti-CD40-AF-12 with 2 load (antibody, human IgG1, kappa)
heavy: not shown
light: DIQMTQSPSSLSASVGDRVTITCRSSQSLVHSNGNTFLHWYQQKPGKAPKLLIYTVSNRFSGVPSRFSGSGSGTDFTLTISSLQPEDFATYFCSQTTHVPWTFGQGTKVEIKRTVAAPSVFIFPPSDEQLKSGTASVVCLLNNFYPREAKVQWKVDNALQSGNSQESVTEQDSKDSTYSLSSTLTLSKADYEKHKVYACEVTHQGLSSPVTKSFNRGEC
modifications: afucosylated N-glycan; compound 12 (maleimidocaproyl-PEG12) on reduced interchain-disulfide cysteines, 2 per antibody, sites not stated
B6: in test [7], the “EC50 … FcγRIIIa NFAT reporter assay” value is roughly 1 ng/mL.

B7: Anti-CD40-AF-12 with 4 load (antibody, human IgG1, kappa)
heavy: not shown
light: DIQMTQSPSSLSASVGDRVTITCRSSQSLVHSNGNTFLHWYQQKPGKAPKLLIYTVSNRFSGVPSRFSGSGSGTDFTLTISSLQPEDFATYFCSQTTHVPWTFGQGTKVEIKRTVAAPSVFIFPPSDEQLKSGTASVVCLLNNFYPREAKVQWKVDNALQSGNSQESVTEQDSKDSTYSLSSTLTLSKADYEKHKVYACEVTHQGLSSPVTKSFNRGEC
modifications: afucosylated N-glycan; compound 12 (maleimidocaproyl-PEG12) on reduced interchain-disulfide cysteines, 4 per antibody, sites not stated
As for B7, the “EC50 … FcγRIIIa NFAT reporter assay” value in test [7] is roughly 2 ng/mL.

B8: Anti-CD40-AF-17 (antibody, human IgG1, kappa)
heavy: not shown
light: DIQMTQSPSSLSASVGDRVTITCRSSQSLVHSNGNTFLHWYQQKPGKAPKLLIYTVSNRFSGVPSRFSGSGSGTDFTLTISSLQPEDFATYFCSQTTHVPWTFGQGTKVEIKRTVAAPSVFIFPPSDEQLKSGTASVVCLLNNFYPREAKVQWKVDNALQSGNSQESVTEQDSKDSTYSLSSTLTLSKADYEKHKVYACEVTHQGLSSPVTKSFNRGEC
modifications: reduced interchain-disulfide cysteine carries compound 17; afucosylated N-glycan; reduced interchain-disulfide cysteines carry compound 17 (maleimidocaproyl-(PEG4)2)
Turning to B8, the “EC50 … FcγRIIIa NFAT reporter assay” value in test [8] is roughly 7 ng/mL.

B9: Anti-CD40-AF-1(6) (antibody, human IgG1, kappa)
heavy: not shown
light: DIQMTQSPSSLSASVGDRVTITCRSSQSLVHSNGNTFLHWYQQKPGKAPKLLIYTVSNRFSGVPSRFSGSGSGTDFTLTISSLQPEDFATYFCSQTTHVPWTFGQGTKVEIKRTVAAPSVFIFPPSDEQLKSGTASVVCLLNNFYPREAKVQWKVDNALQSGNSQESVTEQDSKDSTYSLSSTLTLSKADYEKHKVYACEVTHQGLSSPVTKSFNRGEC
modifications: afucosylated N-glycan; compound 1 (disulfide-PEG12) on reduced interchain-disulfide cysteines, 6 per antibody, sites not stated
notes: 6 BPM per antibody; also called Anti-CD40-AF-1 6-load
B9: in [6], the Kd was 25 µM.

B10: Anti-CD40-AF-1(4) (antibody, human IgG1, kappa)
heavy: not shown
light: DIQMTQSPSSLSASVGDRVTITCRSSQSLVHSNGNTFLHWYQQKPGKAPKLLIYTVSNRFSGVPSRFSGSGSGTDFTLTISSLQPEDFATYFCSQTTHVPWTFGQGTKVEIKRTVAAPSVFIFPPSDEQLKSGTASVVCLLNNFYPREAKVQWKVDNALQSGNSQESVTEQDSKDSTYSLSSTLTLSKADYEKHKVYACEVTHQGLSSPVTKSFNRGEC
modifications: afucosylated N-glycan; compound 1 (disulfide-PEG12) on reduced interchain-disulfide cysteines, 4 per antibody, sites not stated
notes: 4 BPM per antibody; also called Anti-CD40-AF-1 4-load
B10 gave a Kd in test [6] of 22 µM.

B11: Anti-CD40-AF (afucosylated) (antibody, human IgG1, kappa)
heavy: not shown
light: DIQMTQSPSSLSASVGDRVTITCRSSQSLVHSNGNTFLHWYQQKPGKAPKLLIYTVSNRFSGVPSRFSGSGSGTDFTLTISSLQPEDFATYFCSQTTHVPWTFGQGTKVEIKRTVAAPSVFIFPPSDEQLKSGTASVVCLLNNFYPREAKVQWKVDNALQSGNSQESVTEQDSKDSTYSLSSTLTLSKADYEKHKVYACEVTHQGLSSPVTKSFNRGEC
Take B11: the “EC50 … FcγRIIIa NFAT reporter assay” value was roughly 1 ng/mL in test [8], roughly 1 ng/mL in [10], roughly 10 ng/mL in [5] and roughly 10 ng/mL in test [7]. In addition, the “EC50 (read off the curve), CD16a NFAT reporter assay” value in test [9] is roughly 3 ng/mL. Besides, the figures for the “EC50, NFAT activity assay” value in test [1], in test [2] and in test [3] were 0.05 µg/mL, 0.09 µg/mL and 0.07 µg/mL, respectively.
